Experiment [1] has as its target T1, recombinant human IL-33 protein (residues 112 to 270) (ILC0701, ATGen Co. Ltd) (human, UniProt O95760 112-270).
T1 construct: bought protein
T1 sequence: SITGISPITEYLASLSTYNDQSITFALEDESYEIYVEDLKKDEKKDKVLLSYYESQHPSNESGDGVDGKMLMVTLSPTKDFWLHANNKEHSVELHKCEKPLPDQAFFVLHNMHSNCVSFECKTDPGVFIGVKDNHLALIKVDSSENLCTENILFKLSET
Put plainly: KinExA in PBS, neutral-purified IgG. As to the method: Each test antibody (IgG) (“antibody (IgG)” indicates an antibody having a molecular form of IgG; hereinafter, the same representation is used) was analyzed to confirm the affinity with the human IL-33 protein by measuring dissociation constant (Kd) between each test antibody and the human IL-33 protein in PBS by kinetic exclusion assay (KinExA) (KinExA3200, available from Sapidyne Instruments, Inc.). Mixture samples of a test antibody and a human IL-33 protein (ILC0701, available from ATGen Co. Ltd) were prepared. The human IL-33 protein was titrated to a constant concentration of test antibody (final concentration: several tens of pM to several hundreds of pM) over a wide concentration range of the human IL-33 protein (so that it covered the concentrations of the human IL-33 protein resulting from 12-step serial doubling dilutions, i.e. one- to 2048-fold, with the upper limit of final concentration set to several nM to several tens of nM). The mixture samples were incubated at a room temperature until the antigen-antibody reaction reached equilibrium. After the reaction reached equilibrium, the percentage of free anti-IL-33 antibody in each sample was analyzed using KinExA3200. The values of Kd were calculated by fitting the plot of percentages of anti-IL-33 antibody not bound to the human IL-33 protein (vertical axis) and concentrations of antigen (horizontal axis) to a theoretical formula, using a KinExA data analysis program (KinExA Pro Software v3.5.3, available from Sapidyne Instruments, Inc.). Beads for capturing the anti-IL-33 antibody were prepared by suspending 50 mg of Azlactone beads (Sapidyne) in 1 mL of coating solution (10 μg/mL human IL-33 protein (ILC0701, available from ATGen Co. Ltd), 50 mM sodium carbonate at pH of 9.6) and incubating the solution at a room temperature for one hour. The antibody for detection used was anti-human F(ab)′2-DyLight649 (Jackson, 309-495-006).

Experiment [2] concerns the target T1, recombinant human IL-33 protein …. Put plainly: SPR (Biacore T200), human IL-33 (ILC0701) immobilized on CM5, Calibration Free Concentration Analysis of the preserved antibody against a control-preserved sample. As to the method: Each alkaline-purified antibody was dissolved in a citrate buffer (50 mM citric acid; 150 mM NaCl (pH: 6.3)) at a concentration of about 10 mg/mL, and was preserved at a temperature of 40° C. for four weeks, to evaluate the preservation stability of each test antibody (IgG). For evaluation of the monomer purity of each antibody after the preservation, monomer purity was measured by size exclusion chromatography analysis (SEC) and microchip capillary SDS electrophoresis (mCE-SDS), and antigen-binding activity was measured by surface plasmon resonance.
In order to confirm the presence of the antigen-binding ability after the preservation, the antigen-binding activity was measured with a surface plasmon resonance system, Biacore T200 (available from GE Healthcare). A human IL-33 protein (ILC0701, available from ATGen Co. Ltd) was immobilized onto a Sensor Chip CM5 (GE Healthcare) (the amount of immobilized protein was about 3000 to 6000 RU) with Amine Coupling Kit (GE Healthcare). Each preserved antibody solution was then diluted to 10-fold with a citric buffer (50 mM citric acid, 150 mM NaCl (pH: 6.3)), and the resulting solution was analyzed to measure the total protein concentration in the solution, using a microvolume spectrophotometer, Astragene II (Astranet Systems, Ltd.) (protein concentration: about 1 mg/mL). The antibody solution after the measurement of the total protein concentration was diluted to 1000-fold with HBS-EP buffer (10 mM HEPES, 150 mM NaCl, 3 mM EDTA, 0.05% (v/v) Surfactant P20 (at pH of 7.4)). The analyte was thereby prepared. The measurement temperature was 25° C. Each analyte was added for 36 seconds at two flow rates of 5 μL/min and 100 μL/min to obtain sensorgrams of the association phase. The sensorgrams were then analyzed by Calibration Free Concentration Analysis using a data analysis program (GE Healthcare, Biacore T200 Evaluation Software v1.0) to determine the concentration of the antibody having antigen-binding activity. As control, each test antibody after preservation at a temperature of 4° C. for four weeks was also analyzed to confirm the antigen-binding activity, to calculate the ratio of antigen-binding activity of each test antibody after the preservation at a temperature of 40° C. for four weeks.

Experiment [3] shares this target. In words: KinExA in PBS, alkaline-purified IgG. As to the method:
(§1) Mixture samples of a test antibody and a human IL-33 protein (ILC0701, available from ATGen Co. Ltd) were prepared. The human IL-33 protein was titrated to a constant concentration of test antibody (final concentration: several tens of pM to several hundreds of pM) over a wide concentration range of the human IL-33 protein (so that it covered the concentrations of the human IL-33 protein resulting from 12-step serial doubling dilutions, i.e. one- to 2048-fold, with the upper limit of final concentration set to several nM to several tens of nM). The mixture samples were incubated at a room temperature until the antigen-antibody reaction reached equilibrium. After the reaction reached equilibrium, the percentage of free anti-IL-33 antibody in each sample was analyzed using KinExA3200. The values of Kd were calculated by fitting the plot of percentages of anti-IL-33 antibody not bound to the human IL-33 protein (vertical axis) and concentrations of antigen (horizontal axis) to a theoretical formula, using a KinExA data analysis program (KinExA Pro Software v3.5.3, available from Sapidyne Instruments, Inc.). Beads for capturing the anti-IL-33 antibody were prepared by suspending 50 mg of Azlactone beads (Sapidyne) in 1 mL of coating solution (10 μg/mL human IL-33 protein (ILC0701, available from ATGen Co. Ltd), 50 mM sodium carbonate at pH of 9.6) and incubating the solution at a room temperature for one hour. The antibody for detection used was anti-human F(ab)′2-DyLight649 (Jackson, 309-495-006).

For experiment [4] the target is unchanged. In words: cell-based or functional assay.
The target in experiment [5] is T2, biotinylated 6His tag-AviTag-linked mature human IL-33 (residues 112 to 270) (human, UniProt O95760 112-270, biotin on the AviTag portion (BirA)).
T2 construct: made in E. coli; also called biotinylated human IL-33 protein
T2 sequence: T1 sequence
Put plainly: SPR, IL-33 on chip, Fab supernatant as analyte. As to the method:
(§2) The library after the enrichment was used to construct a library of Escherichia coli secreting and expressing Fab. The culture supernatants of several hundreds of clones of Escherichia coli were subjected to measurement of dissociation rate constant (koff) by surface plasmon resonance (SPR) (ProteOn XPR36, available from Bio-Rad Laboratories, Inc.). The biotinylated human IL-33 protein (4 μg/mL) and cynomolgus monkey IL-33 protein (4 μg/mL) were loaded as ligands on a sensor chip (NLC sensor chip, available from Bio-Rad Laboratories, Inc.), to immobilize the human IL-33 protein at an amount equivalent to 1300 to 1600 RU, and the cynomolgus monkeyIL-33 protein at an amount equivalent to 1100 to 1500 RU. The culture supernatant of Escherichia coli was then loaded thereon as analyte to obtain a sensorgram with association phase of one minute and dissociation phase of 10 to 30 minutes. The sensorgram was subjected to interspot correction and blank correction using an SPR data analysis program (ProteOn Manager v3.1.0, available from Bio-Rad Laboratories, Inc.), and then values of koff were determined by off-rate analysis of Langmuir model.

Experiment [6] addresses T3, 6His-AviTag-linked cynomolgus monkey IL-33 (residues 112 to 269) (cynomolgus monkey, UniProt O95760 112-269 (human entry), biotin on the AviTag portion (BirA) in the SPR of Example 7; used without biotinylation in Example 10).
T3 construct: GenBank EHH57404 printed; also called cynomolgus monkey IL-33 protein; mature cynomolgus monkey IL-33
T3 chain: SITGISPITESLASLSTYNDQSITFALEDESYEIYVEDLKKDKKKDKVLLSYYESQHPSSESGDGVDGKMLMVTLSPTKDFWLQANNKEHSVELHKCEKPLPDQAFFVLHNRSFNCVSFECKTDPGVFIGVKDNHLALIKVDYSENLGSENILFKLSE
Put plainly: SPR, IL-33 on chip, Fab supernatant as analyte. As to the method: as §2

Experiment [7] addresses T4, full-length human IL-33 protein (human, UniProt O95760 1-270).
T4 construct: also called Human IL-33 (Full-Length)
T4 sequence: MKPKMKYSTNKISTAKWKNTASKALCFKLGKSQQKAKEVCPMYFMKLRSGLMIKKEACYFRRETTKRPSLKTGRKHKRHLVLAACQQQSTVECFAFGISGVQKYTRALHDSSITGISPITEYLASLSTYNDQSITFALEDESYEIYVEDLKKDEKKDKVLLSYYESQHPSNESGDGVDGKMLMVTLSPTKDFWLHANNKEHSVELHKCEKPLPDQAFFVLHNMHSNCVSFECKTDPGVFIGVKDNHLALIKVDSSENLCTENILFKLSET
In words: KinExA in PBS, alkaline-purified IgG. As to the method: as §1

Positions count from the first letter of the chain named.

B1: A23-1A05 (IgG) (antibody, V domains shown)
VH: EVQLLESGGGLVQPGGSLRLSCAASGFTFSNYYMHWVRQAPGKGLEWVSSISARSRYHYYADSVKGRFTISRDNSKNTLYLQMNSLRAEDTAVYYCARLATRHNAFDIWGQGTLVTVSS
VL: QSVLTQPPSASGTPGQRVTISCSGSSSNIGNNAVSWYQQLPGTAPKLLIYASNMRVIGVPDRFSGSKSGTSASLAISGLRSEDEADYYCGAWDDSQKALVFGGGTKLTVL
notes: tested as neutral-purified and as alkaline-purified antibody; also called V8; IGN8
B1: in experiment [1], the Kd was found to be 0.231 nM. In addition, the “% Active IgG (antigen binding activity after preservation at 40 C for 4 W)” value (“% Active IgG” for short) in experiment [2] amounted to 102%. The Kd in experiment [3] came out at 0.195 nM. In experiment [4], the “IC50 of inhibition of IL-6 production by HUVEC (alkaline-purified IgG, human IL-33 100 ng/mL)” value (“IC50 of inhibition of IL-6 production” for short) was found to be 0.27 µg/mL; the “inhibition of IFN-γ production by human PBMC (alkaline-purified IgG 10 ug/mL, IL-33 10 ng/mL, IL-12 10 ng/mL)” value (from here on “inhibition of IFN-γ production”) came to 97.5%; the “inhibition of production of IL-5 and IL-13 by KU-812 cells (alkaline-purified IgG 1 ug/mL; IL-33 3 ng/mL with IL-3 and C5a)” value is not below 50%; the “percentage of inhibition (%) of IL-6 production by HUVEC (neutral-purified IgG 1 ug/mL, IL-33 100 ng/mL)” value is 74%.

B2: A25-2C02 (IgG) (antibody, V domains shown)
VH: B1 VH with R56S, H58I, H103N
VL: B1 VL with N31R, S35N, I57S, G90W, A98V, L99G
notes: tested as neutral-purified and as alkaline-purified antibody; also called V15; IGN15
With B2, in experiment [1], the Kd came out at 0.00072 nM. In addition, the “% Active IgG” value in experiment [2] is 100%. For the same molecule, the Kd in experiment [3] came to 0.0007 nM. In experiment [4], the “IC50 of inhibition of IL-6 production” value was 0.19 µg/mL; the “inhibition of IFN-γ production” value is 98.8%; the “inhibition of production of IL-5 and IL-13 by KU-812 cells (alkaline-purified IgG 1 ug/mL; IL-33 3 ng/mL with IL-3 and C5a)” value was not below 50%; the “percentage of inhibition (%) of IL-6 production by HUVEC (neutral-purified IgG 1 ug/mL, IL-33 100 ng/mL)” value came out at 96%.

B3: A28-2G07 (Fab) (Fab, V domains shown)
VH: B1 VH with N31S, R56S, H58I, H103R, N104I
VL: B1 VL with N31R, S35N, V56R, I57P, G90S, L99G
notes: Fab secreted by E. coli, tested as culture supernatant; also called V27
With B3, in experiment [5], the “Human IL-33 Binding Amount (RU)” value amounted to 289 RU and the koff is 1e-05 s⁻¹. Besides, in experiment [6], the “Cynomolgus Monkey IL-33 Binding Amount (RU)” value came to 259 RU and the koff was found to be 1.14e-05 s⁻¹.

B4: A28-2H06 (Fab) (Fab, V domains shown)
VH: B1 VH with R54L, R56S, H58R, H103R, N104V
VL: B1 VL with S35N, V56R, I57L, G90A
notes: Fab secreted by E. coli, tested as culture supernatant; also called V28
As for B4, in experiment [5], the “Human IL-33 Binding Amount (RU)” value came out at 349 RU and the koff is 1e-05 s⁻¹. In experiment [6], the “Cynomolgus Monkey IL-33 Binding Amount (RU)” value turned out to be 317 RU and the koff worked out at 1e-05 s⁻¹.

B5: A26-1F02 (IgG) (antibody, V domains shown)
VH: B1 VH with R56S, H58L, N104V
VL: B1 VL with S35N, V56R, I57P, G90E, L99V
notes: tested as neutral-purified and as alkaline-purified antibody; also called V18; IGN18
Consider B5, for which the Kd in experiment [1] came out at 0.0108 nM. Further, the “% Active IgG” value in experiment [2] was 101%. Moreover, the Kd in experiment [7] came out at 0.0104 nM. In experiment [3], the Kd was 0.0053 nM. Also, in experiment [4], the “IC50 of inhibition of IL-6 production” value is 0.23 µg/mL; the “inhibition of IFN-γ production” value was determined as 98.2%; the “inhibition of production of IL-5 and IL-13 by KU-812 cells (alkaline-purified IgG 1 ug/mL; IL-33 3 ng/mL with IL-3 and C5a)” value was not below 50%; the “percentage of inhibition (%) of IL-6 production by HUVEC (neutral-purified IgG 1 ug/mL, IL-33 100 ng/mL)” value was 96%.
